Source: patent US20230416396A1 (Regeneron, published 2023)

Experiments:
[1] = target: T1, human 4-1BB expressed with a C-terminal myc-myc-hexahistidine tag (human, UniProt Q07011 24-186); assay: SPR Biacore 8k, antibody captured by anti-human Fc, h4-1BB.mmH as analyte, 25 C
T1 construct: also called h4-1BB.mmH; REGN3584; not shown: C-terminal myc-myc-hexahistidine tag
Protocol: Equilibrium dissociation constants (KD values) for human 4-1BB expressed with a C-terminal myc-myc-hexahistidine tag (h4-1BB.mmH, REGN3584) or human 4-1BB expressed with a C-terminal murine Fc tag (h4-1BB.mFc, REGN3585) binding to purified anti-CD38×4-1BB 1+2 antibodies were determined using a real-time surface plasmon resonance biosensor using a Biacore 8k instrument. The CM5 Biacore sensor surface was derivatized by amine coupling with a monoclonal mouse anti-human Fc antibody (REGN2567). All Biacore binding studies were performed in a buffer composed of 0.01M HEPES pH 7.4, 0.15M NaCl, 3 mM EDTA, 0.05% v/v Surfactant P20 (HBS-EP running buffer). […] Antibody-reagent association was monitored for 5 minutes while dissociation in HBS-EP running buffer was monitored for 10 minutes. At the end of each cycle, the anti-CD38×4-1BB 1+2 antibody capture surface was regenerated using a 10 second injection of 20 mM phosphoric acid. All binding kinetics experiments were performed at 25° C.
(§1) Kinetic association (kₐ) and dissociation (kd) rate constants were determined by fitting the real-time sensorgrams to a 1:1 binding model using Cytiva Insight curve fitting software. Binding dissociation equilibrium constants (KD) and dissociative half-lives (t/2) were calculated from the kinetic rate constants as: […]

human 4-1BB on cells [2] = target: T2, human 4-1BB on cells (human, UniProt Q07011 24-255); assay: cell-based or functional assay
human 4-1BB on cells [3] = target: T2, human 4-1BB on cells; assay: cell-based or functional assay; remark: listed apart in the source
human 4-1BB on cells [4] = target: T2, human 4-1BB on cells; assay: cell-based or functional assay; remark: listed apart in the source
[5] = target: T3, human 4-1BB expressed with a C-terminal murine Fc tag (human, UniProt Q07011 24-186); assay: SPR Biacore 4000, h4-1BB.mFc captured by anti-mouse Fc, antibody as analyte, 25 C
T3 construct: also called h4-1BB.mFc; REGN3585; not shown: C-terminal murine Fc tag
Protocol: Equilibrium dissociation constants (KD values) for human 4-1BB expressed with a C-terminal murine Fc tag (h4-1BB.mFc, REGN3585) binding to purified anti-CD38×4-1BB 1+2 antibodies were determined using a real-time surface plasmon resonance biosensor using a Biacore 4000 instrument. […] All Biacore binding studies were performed in a buffer composed of 0.01M HEPES pH 7.4, 0.15M NaCl, 3 mM EDTA, 0.05% v/v Surfactant P20 (HBS-EP running buffer). Different concentrations of CD38×4-1BB 1+2 constructs prepared in HBS-EP running buffer (ranging from 100 to 6.25 nM in 4-fold serial dilutions) were injected over the h4-1BB.mFc (REGN3585) captured surface at a flow rate of 30 μL/minute. Antibody-reagent association was monitored for 5 minutes while dissociation in HBS-EP running buffer was monitored for 10 minutes. At the end of each cycle, the h4-1BB.mFc capture surface was regenerated using a 40 sec injection of 10 mM glycine, pH 1.5. All binding kinetics experiments were performed at 25° C.
as §1

human 4-1BB on cells [6] = target: T2, human 4-1BB on cells; assay: cell-based or functional assay; remark: listed apart in the source
[7] = target: T4, human CD38 endogenously expressed on MOLP8 cells (human, UniProt P28907 1-300); assay: flow cytometry on MOLP8 cells (endogenous hCD38), APC anti-human secondary
T4 construct: whole, on cells; also called hCD38
Protocol: The ability of the multispecific antigen binding molecules to bind cells was assessed using flow cytometry. Cell lines were chosen to determine the ability of both the anti-CD38 and anti-4-1BB arms to bind their targets. […] Binding was detected by using a labeled secondary antibody and measuring fluorescence on a flow cytometer.
HEK293 cells were lifted with trypsin, washed and resuspend in stain buffer (2% FBS in PBS). MOLP8 cells were washed and resuspended in stain buffer. Cells were added to wells of a 96 well V-bottom plate (3×10⁵ cells/well). A 1:4, 9-point, dose titration of test antibodies was diluted in stain buffer and added to cells to a final concentration ranging from 610 fM to 10 nM (a “no antibody” control was included as the ninth point (153fM), labeled as “secondary only”). Cells and antibodies were incubated for 30 min on ice and then washed in stain buffer. Cells were resuspended in 2 ug/ml allophycocyanin (APC) conjugated goat-anti human secondary antibody and incubated for 30 min on ice. Cells were then washed and resuspended in viability dye (according to the manufacturer's protocol) and incubated for 30 min on ice. Cells were then washed with stain buffer and resuspended in 2% PFA for 30 min on ice. After washing, cells were filtered and analyzed by flow cytometry to determine the geometric mean fluorescence intensity (gMFI), which was subsequently plotted using GraphPad Prism software. EC₅₀ values of the antibodies were determined from a 4-parameter logistic equation over a 9-point dose response curve (including secondary only control, representing the ninth point).

T3 sequence (Q07011 24-186 limits assumed): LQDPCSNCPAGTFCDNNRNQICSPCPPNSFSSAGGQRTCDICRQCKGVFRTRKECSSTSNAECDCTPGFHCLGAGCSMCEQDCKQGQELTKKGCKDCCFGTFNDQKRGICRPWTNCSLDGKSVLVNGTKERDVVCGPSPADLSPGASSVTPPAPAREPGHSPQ
T1 sequence (Q07011 24-186 limits assumed): as above
T2 sequence (Q07011 24-255): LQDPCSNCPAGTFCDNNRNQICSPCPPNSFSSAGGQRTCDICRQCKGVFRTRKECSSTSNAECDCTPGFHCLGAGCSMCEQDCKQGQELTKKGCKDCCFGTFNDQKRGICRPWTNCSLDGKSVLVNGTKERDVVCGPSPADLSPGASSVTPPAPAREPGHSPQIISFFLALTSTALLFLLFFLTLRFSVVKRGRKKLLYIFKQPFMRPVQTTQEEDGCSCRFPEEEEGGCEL

B1: REGN7647 (bispecific antibody, human IgG4 S228P, kappa)
heavy 1: EVQLVESGGGLVQPGRSLRLSCGASGFTFDDYVMHWVRQIPGKGLEWVAGISWNSGSIGYADSVKGRFTISRDNAKNSLYLQMNSLRAEDTALYFCAKDHIDPYSSSLYYYYGMDVWGQGTTVTVSSASTKGPSVFPLAPCSRSTSESTAALGCLVKDYFPEPVTVSWNSGALTSGVHTFPAVLQSSGLYSLSSVVTVPSSSLGTKTYTCNVDHKPSNTKVDKRVESKYGPPGGGGSGGGGSGGGGSEVQLVESGGGLVQPGRSLRLSCGASGFTFDDYVMHWVRQIPGKGLEWVAGISWNSGSIGYADSVKGRFTISRDNAKNSLYLQMNSLRAEDTALYFCAKDHIDPYSSSLYYYYGMDVWGQGTTVTVSSASTKGPSVFPLAPCSRSTSESTAALGCLVKDYFPEPVTVSWNSGALTSGVHTFPAVLQSSGLYSLSSVVTVPSSSLGTKTYTCNVDHKPSNTKVDKRVESKYGPPCPPCPAPPVAGPSVFLFPPKPKDTLMISRTPEVTCVVVDVSQEDPEVQFNWYVDGVEVHNAKTKPREEQFNSTYRVVSVLTVLHQDWLNGKEYKCKVSNKGLPSSIEKTISKAKGQPREPQVYTLPPSQEEMTKNQVSLTCLVKGFYPSDIAVEWESNGQPENNYKTTPPVLDSDGSFFLYSRLTVDKSRWQEGNVFSCSVMHEALHNRFTQKSLSLSPGK
heavy 2: EVQLVESGGGLVQPGRSLRLSCAASGFTFDDYAMHWVRQAPGKGLEWVSGISWKSDNIGYADSVKGRFTISRDNAKNSLYLQMNSLRAEDTALYYCAKALGGWKFDYYYGMDVWGQGTTVTVSSASTKGPSVFPLAPCSRSTSESTAALGCLVKDYFPEPVTVSWNSGALTSGVHTFPAVLQSSGLYSLSSVVTVPSSSLGTKTYTCNVDHKPSNTKVDKRVESKYGPPCPPCPAPPVAGPSVFLFPPKPKDTLMISRTPEVTCVVVDVSQEDPEVQFNWYVDGVEVHNAKTKPREEQFNSTYRVVSVLTVLHQDWLNGKEYKCKVSNKGLPSSIEKTISKAKGQPREPQVYTLPPSQEEMTKNQVSLTCLVKGFYPSDIAVEWESNGQPENNYKTTPPVLDSDGSFFLYSRLTVDKSRWQEGNVFSCSVMHEALHNHYTQKSLSLSLGK
light: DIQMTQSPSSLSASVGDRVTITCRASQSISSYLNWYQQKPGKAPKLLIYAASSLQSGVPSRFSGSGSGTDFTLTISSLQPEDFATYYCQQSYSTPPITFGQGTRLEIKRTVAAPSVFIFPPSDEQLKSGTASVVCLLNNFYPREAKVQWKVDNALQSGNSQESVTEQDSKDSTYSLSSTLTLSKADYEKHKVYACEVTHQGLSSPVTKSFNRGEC
notes: 1+2 format, hIgG4P-PVA; The linker between the two 4-1BB Fabs is (G4S)3v15; also called CD38x4-1BB (1 + 2), (G4S)3v15; 26812P2 x 35333P2 (IN) + 35333P2 (OUT)
For B1, the “100 nM h4-1BB.mmH Bind (RU)” value [1] was 86.1 RU, the Kd [1] was 16.5 nM and the koff [1] was 0.00533 s⁻¹. For the same binder, the kon [1] was 324000 M⁻¹ s⁻¹, the t½ [1] was 2.2 min and the “EC50 of IFNγ release, T cells + NALM-6 + IgG4P” value (human 4-1BB on cells [2]) was 0.0815 nM. For the same binder, the “EC50 of IL-2 release, T cells + HEK293/CD20/CD38 + REGN2281” value (human 4-1BB on cells [3]) was 0.0535 nM, the “EC50 of IL-2 release, T cells + MOLP-8 + REGN5458” value (human 4-1BB on cells [3]) was 0.216 nM and the “EC50 of IL-2 release, T cells + NALM-6” value (human 4-1BB on cells [3]) was 0.0485 nM. The “MAX IL-2 release, T cells + HEK293/CD20 + REGN2281” value (human 4-1BB on cells [3]) was 61 pg/mL, the “MAX IL-2 release, T cells + HEK293/CD20/CD38 + REGN2281” value (human 4-1BB on cells [3]) was 781 pg/mL and the “MAX IL-2 release, T cells + MOLP-8 + IsoC” value (human 4-1BB on cells [3]) was 73 pg/mL. For the same binder, the “MAX IL-2 release, T cells + MOLP-8 + REGN5458” value (human 4-1BB on cells [3]) was 66 pg/mL, the “MAX IL-2 release, T cells + NALM-6” value (human 4-1BB on cells [3]) was 192 pg/mL and the “EC50 of IL-2 release, T cells + NALM6 + Cemiplimab” value (human 4-1BB on cells [4]) was 0.0477 nM. The “EC50 of IL-2 release, T cells + NALM6 + IgG4P” value (human 4-1BB on cells [4]) was 0.0579 nM, the “EC50 of IL-2 release, T cells + NALM6/PD-L1 + Cemiplimab” value (human 4-1BB on cells [4]) was 0.0911 nM and the “EC50 of IL-2 release, T cells + NALM6/PD-L1 + IgG4P” value (human 4-1BB on cells [4]) was 0.117 nM. The “100 nM Ab Bind (RU)” value [5] was 206 RU, the Kd [5] was 0.56 nM and the koff [5] was 0.000351 s⁻¹. The kon [5] was 626000 M⁻¹ s⁻¹, the t½ [5] was 32.9 min and the “EC50 of IFNγ release, T cells + HEK293/CD20/CD38 + REGN2281” value (human 4-1BB on cells [6]) was 0.0617 nM. For the same binder, the “EC50 of IFNγ release, T cells + MOLP-8 + REGN5458” value (human 4-1BB on cells [6]) was 0.0707 nM, the “EC50 of IFNγ release, T cells + NALM-6” value (human 4-1BB on cells [6]) was 0.0703 nM and the “MAX IFNγ release, T cells + HEK293/CD20 + REGN2281” value (human 4-1BB on cells [6]) was 1910 pg/mL. For the same binder, the “MAX IFNγ release, T cells + HEK293/CD20/CD38 + REGN2281” value (human 4-1BB on cells [6]) was 6050 pg/mL, the “MAX IFNγ release, T cells + MOLP-8 + IsoC” value (human 4-1BB on cells [6]) was 103 pg/mL and the “MAX IFNγ release, T cells + MOLP-8 + REGN5458” value (human 4-1BB on cells [6]) was 3280 pg/mL. The “MAX IFNγ release, T cells + NALM-6” value (human 4-1BB on cells [6]) was 655 pg/mL and the “MAX gMFI” value [7] was 120000 gMFI.
